Data on 35 molecules can be found in patent publication US20260242478A1 (published 2026).

Where no end group is shown, it is not given here.

Assay [1] addresses T1, Anti-PSMA Fab (SEQ ID NOs: 19, 20).
T1 construct: Biotinylated PSMA Fab captured on neutravidin coated plates in the phage ELISA; also called 006 PSMA Fab
The experiment in a line: phage binding ELISA; biotinylated PSMA Fab on neutravidin plate, clonal phage, anti-M13-HRP detection.
Experimental: (§1) Clonal phage were harvested as crude supernatants and screened via standard ELISAs. […] Prior to the addition of clonal phage. wells were incubated with blocking buffer and PSMA antigen or blocking buffer alone. Without washing or aspirating, clonal phage supernatants were then added to the wells and incubated for a short time. Wells were then washed followed by detection of bound phage using a horse radish conjugated anti-M13 antibody.

For assay [2] the target is unchanged. Put plainly: phage binding ELISA; Fab-coated wells pre-incubated with PSMA antigen as competitor, anti-M13-HRP detection.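 Also: clonal phage supernatants screened, with reference wells given blocking buffer only (no PSMA antigen) before phage were added for a brief incubation.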
Experimental: as §1
Assay [3] deals with T2, Anti-PSMA Fab (SEQ ID NOs: 19, 20).
T2 construct: In the phage ELISA the Fab was biotinylated and captured on neutravidin coated plates; also called 006 PSMA Fab
The experiment in a line: phage ELISA; biotinylated PSMA Fab on neutravidin plate, clonal phage supernatant, anti-M13 HRP detection.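 Also: wells preincubated with PSMA antigen in blocking buffer or with blocking buffer only before clonal phage were added for a short incubation, then bound phage detected.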
Experimental: as §1

Assay [4] has the same target. The experiment in a line: phage ELISA; biotinylated PSMA Fab on neutravidin plate pre-incubated with PSMA antigen (competitor), anti-M13 HRP detection.
Experimental: as §1
Assay [5] addresses T3, Anti-PSMA Fab (SEQ ID NOs: 19, 20).
T3 construct: Biotinylated and captured on neutravidin coated plates in the phage ELISA; also called 006 PSMA Fab
The experiment in a line: phage binding ELISA; biotinylated PSMA Fab on neutravidin plate, bound phage detected with anti-M13-HRP.
Experimental: as §1

Assay [6] shares this target. The experiment in a line: phage binding ELISA; PSMA Fab on plate pre-incubated with PSMA antigen as competitor, anti-M13-HRP detection.
Experimental: as §1

B1: Phage-2023 (peptide)
peptide: ALMWCIPQWMCQDQ
notes: Peptide-180 library clone, tested as clonal phage supernatant
Take B1: the “Anti-PSMA Fab (SEQ ID NOs: 19, 20) signal” value in assay [1] amounted to 1.82. Further, the “Anti-PSMA Fab signal in the presence of PSMA” value in assay [2] came to 0.102.

B2: Phage-2013 (peptide)
peptide: LEKWCIPAWMCEVF
notes: as for B1
With B2, in assay [1], the “Anti-PSMA Fab (SEQ ID NOs: 19, 20) signal” value came out at 1.84. Besides, the “Anti-PSMA Fab signal in the presence of PSMA” value in assay [2] came out at 0.0967.

B3: Phage-2009 (peptide)
peptide: EFVKCVPAWMCEWT
modifications: cysteine pairing not given here; also: fused to phage pIII, pIII sequence and linker not given here
notes: Peptide-180 library clone
Turning to B3, the “Phage binding ELISA, Anti-PSMA Fab signal” value in assay [3] was 1.84. In addition, in assay [4], the “Phage binding ELISA, Anti-PSMA Fab signal in the presence of PSMA” value (shortened to “Phage binding ELISA … of PSMA”) stood at 0.0768.

B4: Phage-2008 (peptide)
peptide: HPKWCTPAWMCVML
modifications: cysteine pairing not given here; also: fused to phage pIII, pIII sequence and linker not given here
notes: Peptide-180 library clone
In the case of B4, the “Phage binding ELISA, Anti-PSMA Fab signal” value in assay [3] stood at 1.85. The “Phage binding ELISA … of PSMA” value in assay [4] was found to be 0.0691.

Consider DLPWCIPAWMCMGL [Phage-2039], for which the “Anti-PSMA Fab (SEQ ID NOs: 19, 20) signal” value in assay [5] was determined as 1.8. Moreover, in assay [6], the “Anti-PSMA Fab signal in the presence of PSMA” value worked out at 0.0665.

As for IIKWCIPEWMCYMH [Phage-2028], the “Anti-PSMA Fab (SEQ ID NOs: 19, 20) signal” value in assay [5] is 1.81. For the same molecule, the “Anti-PSMA Fab signal in the presence of PSMA” value in assay [6] was determined as 0.104.

Consider EGKWCIPPWMCERN [Phage-2029], for which the “Anti-PSMA Fab (SEQ ID NOs: 19, 20) signal” value in assay [5] came out at 1.81. Also, the “Anti-PSMA Fab signal in the presence of PSMA” value in assay [6] was 0.0762.

B5: Phage-2038 (peptide)
peptide: MERWCKPAWMCADM
modifications: cysteine pairing not given here; also: fused to phage pIII, pIII sequence and linker not given here
For the molecule B5, in assay [5], the “Anti-PSMA Fab (SEQ ID NOs: 19, 20) signal” value worked out at 1.8. Further, the “Anti-PSMA Fab signal in the presence of PSMA” value in assay [6] is 0.0809.

B6: Phage-2026 (peptide)
peptide: LEKWCTPLWMCVGI
notes: as for B1
In the case of B6, the “Anti-PSMA Fab (SEQ ID NOs: 19, 20) signal” value in assay [1] was 1.82. In addition, the “Anti-PSMA Fab signal in the presence of PSMA” value in assay [2] is 0.078.

On to ASPMCIPEWMCSGV [Phage-2037], for which, in assay [5], the “Anti-PSMA Fab (SEQ ID NOs: 19, 20) signal” value came to 1.8. Also, the “Anti-PSMA Fab signal in the presence of PSMA” value in assay [6] came out at 0.0687.

B7: Phage-2007 (peptide)
peptide: QDMWCIPPWMCWAQ
modifications: cysteine pairing not given here; also: fused to phage pIII, pIII sequence and linker not given here
notes: Peptide-180 library clone
For B7, the “Phage binding ELISA, Anti-PSMA Fab signal” value in assay [3] was 1.85. The “Phage binding ELISA … of PSMA” value in assay [4] is 0.126.

As to FEKWCIPSWMCENA [Phage-2030], the “Anti-PSMA Fab (SEQ ID NOs: 19, 20) signal” value in assay [5] worked out at 1.81. For the same molecule, the “Anti-PSMA Fab signal in the presence of PSMA” value in assay [6] was determined as 0.0725.

Take DIKWCIPPWMCQVE [Phage-2032]: in assay [5], the “Anti-PSMA Fab (SEQ ID NOs: 19, 20) signal” value amounted to 1.81. Also, the “Anti-PSMA Fab signal in the presence of PSMA” value in assay [6] turned out to be 0.0691.

B8: Phage-2031 (peptide)
peptide: VEKWCIPSWMCAEV
modifications: cysteine pairing not given here; also: fused to phage pIII, pIII sequence and linker not given here
For the molecule B8, the “Anti-PSMA Fab (SEQ ID NOs: 19, 20) signal” value in assay [5] was 1.81. Also, the “Anti-PSMA Fab signal in the presence of PSMA” value in assay [6] was 0.086.

B9: Phage-2024 (peptide)
peptide: VQKWCIPAWMCDYV
notes: as for B1
As for B9, the “Anti-PSMA Fab (SEQ ID NOs: 19, 20) signal” value in assay [1] is 1.82. The “Anti-PSMA Fab signal in the presence of PSMA” value in assay [2] was found to be 0.0734.

B10: Phage-2014 (peptide)
peptide: PERWCIPVWMCESG
notes: as for B1
On to B10, for which, in assay [1], the “Anti-PSMA Fab (SEQ ID NOs: 19, 20) signal” value came to 1.83. In addition, the “Anti-PSMA Fab signal in the presence of PSMA” value in assay [2] came to 0.0731.

For IVKWCTPEWMCVGF [Phage-2034], the “Anti-PSMA Fab (SEQ ID NOs: 19, 20) signal” value in assay [5] amounted to 1.8. For the same molecule, in assay [6], the “Anti-PSMA Fab signal in the presence of PSMA” value was 0.154.

B11: Phage-2022 (peptide)
peptide: QLNWCIPEWMCQGL
notes: as for B1
Regarding B11, in assay [1], the “Anti-PSMA Fab (SEQ ID NOs: 19, 20) signal” value was 1.82. Moreover, the “Anti-PSMA Fab signal in the presence of PSMA” value in assay [2] is 0.124.

Take QMKWCTPEWMCVGM [Phage-2041]: in assay [5], the “Anti-PSMA Fab (SEQ ID NOs: 19, 20) signal” value turned out to be 1.79. Further, the “Anti-PSMA Fab signal in the presence of PSMA” value in assay [6] was 0.0767.

B12: Phage-2016 (peptide)
peptide: PIRLCIPEWMCEMV
notes: as for B1
Turning to B12, the “Anti-PSMA Fab (SEQ ID NOs: 19, 20) signal” value in assay [1] turned out to be 1.83. Further, the “Anti-PSMA Fab signal in the presence of PSMA” value in assay [2] was found to be 0.0575.

B13: Phage-2010 (peptide)
peptide: LQKLCIPEWMCLNM
modifications: cysteine pairing not given here; also: fused to phage pIII, pIII sequence and linker not given here
notes: Peptide-180 library clone
Regarding B13, the “Phage binding ELISA, Anti-PSMA Fab signal” value in assay [3] was 1.84. Besides, the “Phage binding ELISA … of PSMA” value in assay [4] was found to be 0.0655.

On to WPMLCIPEWMCDGL [Phage-2033], for which, in assay [5], the “Anti-PSMA Fab (SEQ ID NOs: 19, 20) signal” value was 1.8. The “Anti-PSMA Fab signal in the presence of PSMA” value in assay [6] is 0.0977.

B14: Phage-2019 (peptide)
peptide: IVKWCTPPWMCTIY
notes: as for B1
Take B14: in assay [1], the “Anti-PSMA Fab (SEQ ID NOs: 19, 20) signal” value was 1.83. In assay [2], the “Anti-PSMA Fab signal in the presence of PSMA” value is 0.153.

For the molecule ELQRCTPWWMCFDV [Phage-2027], in assay [5], the “Anti-PSMA Fab (SEQ ID NOs: 19, 20) signal” value stood at 1.81. The “Anti-PSMA Fab signal in the presence of PSMA” value in assay [6] came out at 0.0689.

Turning to EAKWCIPAWMCEDA [Phage-2036], the “Anti-PSMA Fab (SEQ ID NOs: 19, 20) signal” value in assay [5] stood at 1.8. Also, the “Anti-PSMA Fab signal in the presence of PSMA” value in assay [6] amounted to 0.0685.

B15: Phage-2012 (peptide)
peptide: GEKWCIPPWMCITN
notes: as for B1
Consider B15, for which the “Anti-PSMA Fab (SEQ ID NOs: 19, 20) signal” value in assay [1] worked out at 1.84. For the same molecule, in assay [2], the “Anti-PSMA Fab signal in the presence of PSMA” value was determined as 0.0697.

B16: Phage-2015 (peptide)
peptide: VVQLCSPVWMCEGF
notes: as for B1
On to B16, for which, in assay [1], the “Anti-PSMA Fab (SEQ ID NOs: 19, 20) signal” value is 1.83. The “Anti-PSMA Fab signal in the presence of PSMA” value in assay [2] worked out at 0.086.

In the case of SLNWCIPEWMCEGF [Phage-2035], the “Anti-PSMA Fab (SEQ ID NOs: 19, 20) signal” value in assay [5] amounted to 1.8. Also, in assay [6], the “Anti-PSMA Fab signal in the presence of PSMA” value was found to be 0.0793.

On to VHKWCIPSWMCEAP [Phage-2040], for which the “Anti-PSMA Fab (SEQ ID NOs: 19, 20) signal” value in assay [5] is 1.79. In addition, the “Anti-PSMA Fab signal in the presence of PSMA” value in assay [6] was 0.0914.

B17: Phage-2018 (peptide)
peptide: LDKWCTPSWMCYGM
notes: as for B1
In the case of B17, the “Anti-PSMA Fab (SEQ ID NOs: 19, 20) signal” value in assay [1] was 1.83. Further, the “Anti-PSMA Fab signal in the presence of PSMA” value in assay [2] amounted to 0.106.

B18: Phage-2011 (peptide)
peptide: DTHMCRPLWMCTGL
modifications: cysteine pairing not given here; also: fused to phage pIII, pIII sequence and linker not given here
notes: Peptide-180 library clone
B18: in assay [3], the “Phage binding ELISA, Anti-PSMA Fab signal” value was determined as 1.84. Further, the “Phage binding ELISA … of PSMA” value in assay [4] is 0.0778.

B19: Phage-2021 (peptide)
peptide: TEIWCIPPWMCDGQ
notes: as for B1
Take B19: in assay [1], the “Anti-PSMA Fab (SEQ ID NOs: 19, 20) signal” value is 1.82. Besides, the “Anti-PSMA Fab signal in the presence of PSMA” value in assay [2] is 0.0686.

B20: Phage-2025 (peptide)
peptide: ELKRCTPSWMCEGI
notes: as for B1
Consider B20, for which, in assay [1], the “Anti-PSMA Fab (SEQ ID NOs: 19, 20) signal” value was found to be 1.82. Further, the “Anti-PSMA Fab signal in the presence of PSMA” value in assay [2] amounted to 0.059.

B21: Phage-2017 (peptide)
peptide: MVKWCFPEWMCWTD
notes: as for B1
For the molecule B21, the “Anti-PSMA Fab (SEQ ID NOs: 19, 20) signal” value in assay [1] was 1.83. In addition, the “Anti-PSMA Fab signal in the presence of PSMA” value in assay [2] amounted to 0.136.

B22: Phage-2020 (peptide)
peptide: VIKLCSPPWMCIGL
notes: as for B1
With B22, the “Anti-PSMA Fab (SEQ ID NOs: 19, 20) signal” value in assay [1] turned out to be 1.82. In addition, in assay [2], the “Anti-PSMA Fab signal in the presence of PSMA” value is 0.0946.
